Numbering of substitutions follows the chain as printed.
B1: SB-40-18 Fab (Fab, V domains shown)
VH: QVQLVQSGAEVKKPGASVKVSCKASGYTFTSYYMAWVRQAPGQRLEWMGWINPAVGATIYSQKFQGRVTITRDTSASTAYMELSSLRSEDTAVYYCARDTGEYSYSPHGMDVWGQGTTVTVSS
VL: EIVLTQSPATLSLSPGERATLSCRASQSVSSYLAWYQQKPGQAPRLLIYDSSNRATGIPARFSGSGSGTDFTLTISSLEPEDFAVYYCQQRDEHPPWTFGGGTKVEIK
notes: Fab by papain digestion
B2: SB-40-19 Fab (Fab, V domains shown)
VH: QVQLVQSGAEVKKPGASVKVSCKASGYTFTSYYMVWVRQAPGQGLEWMGIINPSSGATNYAQKFQGRVTMTTDTSTSTAYMELRSLRSDDTAVYYCARDTGEYSYSPHGMDVWGQGTTVTVSS
VL: B1 VL
notes: Fab by papain digestion
B3: SB-40-20 Fab (Fab, V domains shown)
VH: B2 VH with Y32F, M34I, V35S, A57H, F64L, R84S, D89E
VL: B1 VL
notes: Fab by papain digestion
B4: SB-40-21 Fab (Fab, V domains shown)
VH: B2 VH with A57D, T72R, T76I, R84S, S85R
VL: B1 VL
notes: Fab by papain digestion
B5: SB-48 (antibody, V domains shown)
VH: QVQLVESGGGVVQPGRSLRLSCAASGFTFSSYGMHWVRQAPGKGLEWVAVISYDGSNKYYADSVKGRFTISRDNSKNTLYLQMNSLRAEDTAVYYCARDGTIAAAGWPPEYFQHWGQGTLVTVSS
VL: DIQMTQSPSSVSASVGDRVTITCRASQGIDSWLAWYQQKPGKAPKLLIYAASSLQSGVPSRFSGSGSGTDFTLTISSLQPEDFATYYCQQASNFPITFGGGTKVEIK
notes: IgG
B6: SB-1-2 Fab (Fab, V domains shown)
VH: QVQLVESGGGVVQPGRSLRLSCAASGFTFGSFGMNWVRQAPGKGLEWVSAITASGGSTFYADSVKGRFTISRDNSKNTLYLQMNSLRAEDTAVYYCAKDFTEVVGWLGMDVWGQGTTVTVSS
VL: EIVMTQSPGTLSLSPGERATLSCRASQSVSSSYLAWYQQKPGQAPRLLIYGASSRATGIPDRFSGSGSGTDFTLTISRLEPEDFAVYYCQLLGSSPRTFGGGTKVEIK
notes: Fab by papain digestion
B7: SB-1-3 Fab (Fab, V domains shown)
VH: B6 VH with Q1E, V11L, Q13K, R16G, G30S, S31A, F32Y, A53S, G56R, F59Y
VL: B6 VL
notes: Fab by papain digestion
B8: SB-1-4 Fab (Fab, V domains shown)
VH: B6 VH with R16G, G30S, S31A, F32Y, T52R, S57A, F59Y
VL: B6 VL
notes: Fab by papain digestion
B9: SB-1-5 Fab (Fab, V domains shown)
VH: B6 VH with G30S, S31A, F32Y, T52S, G56R
VL: B6 VL
notes: Fab by papain digestion
B10: SB-2-9 Fab (Fab, V domains shown)
VH: QVQLVESGGGVVQPGRSLRLSCAASGFTFKTYGMHWVRQAPGKGLEWVAHIWYEGSNKVYADSVKGRFTISRDNSKNTLYLQMNSLRAEDTAVYYCARDQTAAAAIWGMDVWGQGTTVTVSS
VL: B6 VL with I2V, M4L, L91Q, L92S, G93S, S95H, R97F
notes: Fab by papain digestion
B11: SB-2-7 Fab (Fab, V domains shown)
VH: EVQLLESGGGLVQPGGSLRLSCAASGFTFARYGMHWVRQAPGKGLEWVSAISGLAGPTYADSVKGRFTISRDNSKNTLYLQMNSLRAEDTAVYYCARDQTAAAAIWGMDVWGQGTTVTVSS
VL: B6 VL with I2V, M4L, L91Q, L92S, G93S, S95H, R97F
notes: Fab by papain digestion
B12: SB-2-8 Fab (Fab, V domains shown)
VH: B11 VH with E1Q, L5V, L11V, G16R, A30L, R31D, G53A, L54F, P57S
VL: B6 VL with I2V, M4L, L91Q, L92S, G93S, S95H, R97F
notes: Fab by papain digestion

How the values were obtained:
[1] = target: T1, human SIRPβ1 domain 1 (D1) Fc fusion (human, UniProt O00241 30-148); assay: Octet, Fab monovalent
T1 construct: Made in HEK293/T cells with a heterologous signal peptide; also called Human SIRPβ1 D1-Fc; Human SIRPβ1-Fc; not shown: C-terminal human IgG1 Fc

[2] = target: T2, mouse SIRPβ1 on CHO cells (mouse); assay: flow cytometry;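 for FOB: antibodies tested at 1 µg/ml for 30 min on ice against receptor-expressing cells, detected with a PE-labelled secondary antibody, read as mean fluorescence intensity relative to background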
T2 construct: Whole entry
T2 chain: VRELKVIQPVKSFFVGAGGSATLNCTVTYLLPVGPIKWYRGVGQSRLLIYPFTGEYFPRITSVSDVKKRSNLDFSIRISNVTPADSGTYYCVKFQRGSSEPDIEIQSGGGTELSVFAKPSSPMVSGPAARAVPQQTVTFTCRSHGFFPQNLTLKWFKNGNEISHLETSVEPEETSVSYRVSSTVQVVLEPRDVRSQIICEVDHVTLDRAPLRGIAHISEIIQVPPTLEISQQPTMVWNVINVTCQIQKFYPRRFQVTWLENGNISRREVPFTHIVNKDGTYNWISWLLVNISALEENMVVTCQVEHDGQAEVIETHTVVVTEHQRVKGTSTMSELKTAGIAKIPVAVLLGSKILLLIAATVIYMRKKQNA

[3] = target: T3, human SIRPβ1 isoform 1 on cells (human, UniProt O00241 30-398); assay: flow cytometry;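 note: antibodies tested at 1 µg/ml for 30 min on ice against receptor-expressing cells, detected with a PE-labelled secondary antibody, read as mean fluorescence intensity relative to background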
T3 construct: On CHO cells (low level), on BWZ/BW5147.G.1.4 cells (reporter cells co-express human DAP12) or on primary human myeloid cells; also called huSIRPβ1; BWZ-huSIRPβ1

mouse SIRPα on cells [4] = target: T4, mouse SIRPα on cells (mouse, UniProt P97797 32-513); assay: flow cytometry;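 for FOB: antibodies tested at 1 µg/ml for 30 min on ice against receptor-expressing cells, detected with a PE-labelled secondary antibody, read as mean fluorescence intensity relative to background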
T4 construct: whole, on cells
T4 sequence (looked up): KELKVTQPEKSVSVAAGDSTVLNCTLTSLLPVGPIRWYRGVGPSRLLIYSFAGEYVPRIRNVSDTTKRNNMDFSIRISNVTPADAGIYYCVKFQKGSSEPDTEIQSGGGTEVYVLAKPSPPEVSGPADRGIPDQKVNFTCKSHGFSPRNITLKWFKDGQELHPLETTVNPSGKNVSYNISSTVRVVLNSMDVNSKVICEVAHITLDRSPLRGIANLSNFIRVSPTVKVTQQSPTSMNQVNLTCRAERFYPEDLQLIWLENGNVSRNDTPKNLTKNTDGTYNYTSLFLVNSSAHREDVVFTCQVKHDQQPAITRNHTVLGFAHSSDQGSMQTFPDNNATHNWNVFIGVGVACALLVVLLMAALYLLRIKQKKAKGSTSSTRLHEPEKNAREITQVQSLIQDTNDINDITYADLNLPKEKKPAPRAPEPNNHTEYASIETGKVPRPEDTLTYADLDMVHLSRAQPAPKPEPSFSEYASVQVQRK

human SIRPα on cells [5] = target: T5, human SIRPα on cells (human, UniProt P78324 31-504); assay: flow cytometry;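 for FOB: antibodies tested at 1 µg/ml for 30 min on ice against receptor-expressing cells, detected with a PE-labelled secondary antibody, read as mean fluorescence intensity relative to background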
T5 construct: Whole entry

[6] = target: T6, human SIRPα domain 1 (D1) Fc fusion (human, UniProt P78324 32-149); assay: Octet
T6 construct: also called human SIRPα D1-Fc; Human SIRPα Fc; not shown: C-terminal human IgG1 Fc

mouse SIRPα D1-Fc = target: T7, mouse SIRPα D1-Fc (mouse, UniProt P97797 32-150, limits assumed); assay: Octet
T7 construct: domain: D1
T7 sequence (looked up): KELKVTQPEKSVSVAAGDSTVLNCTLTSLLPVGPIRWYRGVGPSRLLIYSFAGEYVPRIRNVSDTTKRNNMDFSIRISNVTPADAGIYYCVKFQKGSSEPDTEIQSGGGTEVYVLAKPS
Procedure: Briefly, Octet affinity measurements were performed by loading IgGs on-line onto AHQ sensors. Sensors were equilibrated off-line in assay buffer for 30 min and then monitored on-line for 60 seconds for baseline establishment. For avid binding measurement, sensors with loaded IgGs were exposed to 100 nM antigen (human SIRPα domain 1 (D1) Fc fusion or SIRPβ1 domain 1 (D1) Fc fusion) for 3 min, and then transferred to assay buffer for 3 min for off-rate measurement. Additional avid binding was determined by loading biotinylated SIRPβ1 monomer on SA sensors and exposing to 100 nM IgG in solution. Monovalent binding measurements were obtained by loading human SIRPα- or SIRPβ1-Fc fusion antigens onto AHQ sensor, followed by exposure to 100 nM anti-SIRPβ1 antibody Fab. Additional monovalent measurements were made by loading biotinylated human SIRPα or SIRPβ1 monomer to SA sensor followed by exposure to 100 nM Fab in solution. Kinetics data were fit using a 1:1 binding model in the data analysis software provided by ForteBio (ForteBio Data Analysis Software 7.0).

[7] = target: T2, mouse SIRPβ1 on CHO cells; assay: flow cytometry
mouse SIRPα on cells [8] = target: T4, mouse SIRPα on cells; assay: flow cytometry; remark: listed apart in the source
human SIRPα on cells [9] = target: T5, human SIRPα on cells; assay: flow cytometry; remark: listed apart in the source
[10] = target: T1, human SIRPβ1 domain 1 (D1) Fc fusion; assay: Octet, IgG avid

T1 sequence (O00241 30-148 limits assumed): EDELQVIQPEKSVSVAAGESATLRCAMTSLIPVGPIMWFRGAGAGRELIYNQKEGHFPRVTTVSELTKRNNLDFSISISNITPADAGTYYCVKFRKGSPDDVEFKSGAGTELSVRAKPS
T3 sequence (O00241 30-398): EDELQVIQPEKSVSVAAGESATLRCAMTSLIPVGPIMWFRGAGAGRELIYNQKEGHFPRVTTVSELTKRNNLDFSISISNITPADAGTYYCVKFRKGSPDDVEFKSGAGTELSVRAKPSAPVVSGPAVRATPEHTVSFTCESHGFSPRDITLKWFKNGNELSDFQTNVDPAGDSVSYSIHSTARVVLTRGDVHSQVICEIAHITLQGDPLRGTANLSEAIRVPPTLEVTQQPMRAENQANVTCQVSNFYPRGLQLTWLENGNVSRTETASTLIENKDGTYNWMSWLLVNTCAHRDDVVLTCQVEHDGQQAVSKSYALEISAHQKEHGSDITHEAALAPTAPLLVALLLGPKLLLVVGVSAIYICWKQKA

| Binder | Kd [1] [nM] | further results |
| --- | --- | --- |
| B1 | 18.1 |  |
| B2 | 44.8 |  |
| B3 | 9.41 |  |
| B4 | 40.4 |  |
| B5 |  | FOB [2]: 1.1 fold over background; FOB [3]: 1.7 fold over background; FOB (mouse SIRPα on cells [4]): 2.4 fold over background; FOB (human SIRPα on cells [5]): 2.1 fold over background; binding result [6]: no binding (tested: 100 nM); binding result (mouse SIRPα D1-Fc): no binding (tested: 100 nM); binding result [7]: no binding (tested: 1 ug/ml); binding result (mouse SIRPα on cells [8]): no binding (tested: 1 ug/ml); binding result (human SIRPα on cells [9]): no binding (tested: 1 ug/ml); Kd [10]: 27.7 nM |
| B6 | 37.8 |  |
| B7 | 45.4 |  |
| B8 | 43.3 |  |
| B9 | 82.4 |  |
| B10 | 19.2 |  |
| B11 | 6.21 |  |
| B12 | 5.02 |  |

From patent US20250026827A1 (Alector, published 2025)
